Assay results as given in the supplement of paper PMC12455559.

How the values were obtained:
[1] = melting temperature (DSF); higher = more thermostable
Method: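 Candidate PET hydrolases were expressed in E. coli C41(DE3) in 2 mL autoinduction cultures in 24-deep-well plates, Ni-bead purified and released by SUMO protease cleavage on an OT-2 robot. Yield per well was measured by BCA; values below 25 ug (0.1 mg/mL) are below the detection threshold. Melting temperature was measured by differential scanning fluorimetry with Sypro Orange, ramping from 25 C at 0.3 C/step.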

[2] = purified protein yield per well (BCA); higher = higher soluble expression
Procedure, shortened: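 Candidate enzymes were produced in E. coli C41(DE3) grown in 2 mL autoinduction cultures containing 100 µg/mL kanamycin, first at 37 °C for 2 h and then at 18 °C for 40 h. After cell lysis, protein was captured on Ni-charged magnetic beads and freed by SUMO protease cleavage on an OT-2 robot. Purified protein yield per well was read with the Pierce Rapid Gold BCA kit. Values under 25 ug (0.1 mg/mL) fall below the detection threshold.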

[3] = PET hydrolysis, aromatic products released after 48 h (umol product/mg enzyme); higher = more PET depolymerization activity; conditions: substrate: cryPow
Method: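 HTP-purified, SUMO-cleaved, tagless PET hydrolase candidates (5 ug, 1.43 mg/g PET) were incubated 48 h without shaking with 3.5 mg amorphous PET film (aFilm) or crystalline PET powder (cryPow) in 0.5 mL buffer: NaCitrate pH 4.5/5.5, NaPhosphate pH 6.5/7.5, glycine pH 8.5. Incubation was at 40 or 60 C. Aromatic products (TPA, MHET, BHET) in the supernatant were quantified by UV absorbance at 260/280 nm relative to buffer blanks and expressed per mg enzyme. LCC-ICCG was the positive control on every plate.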

Sequence | melting temperature [1] | purified protein yield per well [2] | PET hydrolysis ([3]; 40 °C, pH 5.5) | PET hydrolysis ([3]; 40 °C, pH 6.5) | PET hydrolysis ([3]; 40 °C, pH 7.5) | PET hydrolysis ([3]; 40 °C, pH 8.5) | PET hydrolysis ([3]; 60 °C, pH 5.5) | PET hydrolysis ([3]; 60 °C, pH 6.5) | PET hydrolysis ([3]; 60 °C, pH 7.5) | PET hydrolysis ([3]; 60 °C, pH 8.5) | PET hydrolysis ([3]; 40 °C, pH 4.5) | PET hydrolysis ([3]; 60 °C, pH 4.5)
ADNPYQRGPDPTQSSVSASRGTFATAQVGVPAGNGFGGGVIYHPTDTSQGTFGAVAIVPGYTATWAAEGAWMGHWLASFGFVVIGIDTNNRNDWDTARGTQLLAALDYLTQRSSVRDRVDPSRTAVMGHSMGGGGAMYAALQRPSLKTAVGLAPFSPSQNLTTTRVPTMLLSGQNDTTTTPASIVNLYNGIPSSVEKAYLELTGAGHGFPTSNNSTMMRNVIPWLKIFVDSDTRYTQFLCPLSDSNGIRTYQNTCPLVPSPVPTTTSTTSSTSTTTTSTTTTTTTSVPVGACSATYRTTNAWSGGYQGEVTVAAGDSAVNGWTVRWTLDSGQTISQVWNGTLSATGSAVSVRNASYNGSLRPGTSTTFGFIAGGAPSTPVLSCTSP [DP072] | 58 C | 89 µg | < 3 | 8 | 24 | 32 | < 3 | < 3 | < 3 | 3 |  | 
ADNPYQRGPDPTRTSVATENGPFANTSVSVPTGYGFNGGRIYYPTDTSQGTFGAIAISPGYTALFSAELAWMGPWLASHGFVVIGIETNSRNDFDTARGTQLLAALDYLTQQSPVRDRVDPTRLAVAGHSMGGGGALSAATRRSSLKAAVGIAPYSPSSNLANDRVPTMIFSGQADTVVTPSYATSLYNSLPSTTESIYLEVAGADHGFMVGRSNPVMIRTMLPFLKMFIDNDARYSQFLCPLLDSSGVVTSRSTCPLLPSTPTTPPTDPPTDPPTNPPGSANEIVGTQSGRCVDVPNAATTNGTRVQLYTCNKQTNQAWTYTSGKQLQVYGTMCLDAAGSGNGAAVQIYSCHSQTNQQWNVNSNGTISNVQSGRCLDVWSTSNGAQIQLYDCHGQTNQQFRLAALGGGTQTPTPTPTTPPPTGGACDLPSSYRWSSTG [ESM143] | 55.9 C | 55.9 µg | < 3 | < 3 | < 3 |  | < 3 | < 3 | < 3 |  | < 3 | < 3
ETEYRKGPDPTEATVTAALGPFATASVSVPSSVAGFGGGVIHYPTDTSQGTFGAVAVAPGFLGSSANYAWMGPRLASQGFVVFLINTDSRLDQPPSRGDQLLAALDYLVTSSSVRARIDASRLAVAGHSMGGGGTLEAATDRPGLQAAIPLQPWHTVKSWPNVQVPTLIIGAENDTTAPVASHAEPFYVSIPAAAEKAYLELNNAEHRVGTAGDTTQAKFMIVWLKRYVDNDTRYEQFICPPPPAPSSEIQEYRNTCPG [TEP171] | 44.2 C | 59.3 µg | < 3 | < 3 | < 3 |  | < 3 | < 3 | < 3 |  | < 3 | < 3
ADNPFQRGPNPTVASVAATRGTFATAQTSVPAGNGFGGGVIYYPTDTSQGTFGGVAIVPGYSALFANEEAWMGPWLASFGFVVIGIETNSRTDSADARGTQLLAALDYLTQRSSVRDRVDPNRLSVVGHSAGGAGVLSALLRRPSLKAGVGLAPGSPVGNYDLYNDRVPTMFISGQRDTTVTQSYLNGLYSTLPATTPSAWVEITGVDHLFATRANTTEMRVLIPWLKIWVDNDTRYTQFLCPLADSSNISMYRNKCPYVPPGGSSPSPSASPSSSPSPSPSSSPSPSPSPSPSPSPSPSPSPTTSPSPPPPGACSAAYRTVNSWPGGYQGEVTVTAGGSAVNGWTVRWTLGSGQTITQLWNGTLSTSGSAVTVKNASFNGSIPASGSATFGFLATGTPSAPSLSCTSP [ESM007] | 59.2 C | 424 µg | < 3 | < 3 | < 3 |  | < 3 | < 3 | < 3 |  | < 3 | < 3
ADSPYQRGPDPTPASVAATRGPFATTQATVPAGNGFNGGYVYYPTDTSQGTWGAVAIVPGYSALFANEEAWMGPWLASFGFVVIGIETNSRTDGADARATQLLAALDYLTRTSPIRDRVDANRLGVMGHSAGGAGTLLAALRRPTLKTAVGLAPGTPGNNLNMSTTQVPTMLLSGQNDGTVTPTYVQGIYNTLPAGVEHAWAELAGNDHLSFTRSNPTEMRLLIPWLKTFLDNDTRYTQFLCPLANSTGVSRYNATCPLVPPDGPTSPPTTTPPTSAPPTTSAPTTPPPSGATCTATYRTVNSWSGGFQGEVTVTAGAAALNGWTVRWESNNGQSISQVWNGTLSTSGSTATVRNVSYNGSLAAGATTTFGFLSSGTPAATSPTCASP [ESM051] | 54.4 C | 27.3 µg |  |  |  |  |  |  |  |  |  | 
TADSSYQRGPAPTEASVRADRGPFQVARVNVPGAGFGSGTIYYPTDTSQGTFGGVAVSPGFLSPEILIAWLGPRLASHGFVVITFTTNTPTDQPDSRGSQLLAALDYLTTQSPTAVRQRLDNTRLSVIGHSMGGGGALRAANDRPDLQAAVPLGPYHTTKDWSGVRVPTMIIGGQYDSIAPNDQHSERFYNSLDSAPEKAYLRVTGTTHITVGTGTPGVGKYVLSWLKRFVDDDTRYDQFLCPTPSGPDVVEYHSTCPHA [TEP009] | 49.3 C | 28.4 µg |  |  |  |  |  |  |  |  |  | 
TNPAPPSTPNPPAEESPYVRGPNPTVSFLEARSGPLSVRTSRVSSLVSGFGGGTIHYPTGTTGTMGAVVVIPGFVSAESSIDWWGPKLASHGFVVLTIDTNTGFDQPPSRARQINNALDYLVSQNSSRTSPVRGMIDTNRLGVIGWSMGGGGTLRVASEGRIKAAIPLAPWDTVSSYAANAQAPTLIFACQADIVAPVAAHASPFYNRLPNSIDKAYVEISGGSHYCANGGGLNNNVLSRFGVSWMKRFLDEDTRYSQFLCGPNHRSDRDIADYRGNCP [ESM172] | 49 C | 26 µg |  |  |  |  |  |  |  |  |  | 
